This passage reports Kd results from patent publication US20210246507A1.

pKd: −log10 of the molar value.

The target of this assay is human C3b (human) (UniProt P01024). Nature of the assay: SPR (Biacore 3000), human C3b amine-coupled to CM5 chip, FHR-4 injected at 1 to 100 µg/ml, 1:1 Langmuir fit. Background: SPR reads the build-up and loss of mass on a sensor chip optically.
Sequence of UniProt P01024 (P01024 23-667 limits assumed, chain 1 of 2): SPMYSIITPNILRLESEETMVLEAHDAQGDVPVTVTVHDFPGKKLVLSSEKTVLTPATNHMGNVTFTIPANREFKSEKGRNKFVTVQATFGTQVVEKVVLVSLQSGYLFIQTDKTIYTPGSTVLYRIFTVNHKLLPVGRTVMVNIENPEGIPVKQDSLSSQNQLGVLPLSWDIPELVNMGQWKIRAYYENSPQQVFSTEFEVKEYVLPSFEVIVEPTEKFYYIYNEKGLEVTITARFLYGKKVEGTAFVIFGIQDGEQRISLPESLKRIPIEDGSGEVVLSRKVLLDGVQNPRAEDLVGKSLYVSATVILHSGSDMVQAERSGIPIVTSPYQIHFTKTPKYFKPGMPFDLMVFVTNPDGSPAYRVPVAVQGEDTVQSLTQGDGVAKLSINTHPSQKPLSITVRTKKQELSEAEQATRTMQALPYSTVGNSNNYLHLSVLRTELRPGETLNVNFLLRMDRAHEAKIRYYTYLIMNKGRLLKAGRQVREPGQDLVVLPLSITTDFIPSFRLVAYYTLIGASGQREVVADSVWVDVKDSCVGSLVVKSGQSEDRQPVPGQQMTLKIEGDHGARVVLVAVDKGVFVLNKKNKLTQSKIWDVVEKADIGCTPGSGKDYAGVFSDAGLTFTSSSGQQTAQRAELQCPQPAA
Sequence of UniProt P01024 (P01024 749-1663 limits assumed, chain 2 of 2): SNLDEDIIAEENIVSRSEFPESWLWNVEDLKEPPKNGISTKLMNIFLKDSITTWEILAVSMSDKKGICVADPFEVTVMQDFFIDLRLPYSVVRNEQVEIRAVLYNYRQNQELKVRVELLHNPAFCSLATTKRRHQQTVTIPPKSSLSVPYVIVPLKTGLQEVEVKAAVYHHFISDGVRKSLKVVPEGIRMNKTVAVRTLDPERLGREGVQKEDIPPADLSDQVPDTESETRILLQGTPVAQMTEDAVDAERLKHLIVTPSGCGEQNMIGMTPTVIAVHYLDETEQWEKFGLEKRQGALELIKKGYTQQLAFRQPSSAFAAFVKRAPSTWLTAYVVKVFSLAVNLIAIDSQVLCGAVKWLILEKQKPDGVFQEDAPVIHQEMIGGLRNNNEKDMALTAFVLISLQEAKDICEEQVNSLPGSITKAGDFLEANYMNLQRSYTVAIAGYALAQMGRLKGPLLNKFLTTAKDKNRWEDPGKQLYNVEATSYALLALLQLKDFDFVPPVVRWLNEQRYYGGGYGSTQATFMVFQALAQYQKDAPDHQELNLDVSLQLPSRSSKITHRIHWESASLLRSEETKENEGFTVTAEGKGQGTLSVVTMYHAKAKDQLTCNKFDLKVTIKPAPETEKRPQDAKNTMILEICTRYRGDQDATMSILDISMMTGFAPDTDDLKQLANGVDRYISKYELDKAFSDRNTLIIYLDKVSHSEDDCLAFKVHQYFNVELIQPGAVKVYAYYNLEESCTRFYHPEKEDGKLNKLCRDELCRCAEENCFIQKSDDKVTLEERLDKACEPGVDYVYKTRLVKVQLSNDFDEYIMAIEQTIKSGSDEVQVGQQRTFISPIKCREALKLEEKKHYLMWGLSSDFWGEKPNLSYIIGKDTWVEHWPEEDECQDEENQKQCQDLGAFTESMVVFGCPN

What is called pKd is the negative decadic logarithm of the Kd, by convention in mol/L. Read a low pKd as a high Kd. Turning to “complement factor H-related protein 4 (FHR-4) (from UniProt Q92496 20-578)”, the pKd is 5.96.
